Source: patent publication CN114456264A (INST OF MICROBIOLOGY OF CHINESE ACADEMY OF SCIENCES, dated 2022)

Target: SARS-CoV RBD蛋白 (SARS-CoV, UniProt P59594 306-527)
Experiment: SPR, Biacore 8K, RBD on SA chip, antibody as analyte

B1: 抗体IMCAS-364 (antibody, V domains shown)
VH: QVQLQESGGGVVQPGRSLRLSCAASGFTFSRYGMHWVRQAPGKGLEWVAVIWYDGSNKYYADSVKGRFTISRDNSKNTLYLQMNSLRADDTAVYYCAKQEGTYCSGGSCYSGLDYWGQGTLVTVSS
VL: not shown
  Kd: 8.17 nM
